Assays:
[1] = biological target: T1, Recombinant TLR4/MD2 complex (R&D Systems 3146-TM-050/CF) (UniProt O00206 24-631; Q9Y6Y9 19-160); assay: SPR; Biacore X100; TLR4/MD2 complex immobilised on a CM5 chip by amine coupling (1,223.9 RU); IFI16 alone 31.25-1,000 nM flowed at 30 μl/min, 25°C, HBS-EP+ buffer; association 120 s, dissociation 180 s; 1:1 binding model; settings: both partners purified
T1 construct: Toll-like receptor 4 chain of the bought recombinant TLR4/MD2 complex; neither species nor construct limits are stated; MD2 (lymphocyte antigen 96) chain of the bought recombinant TLR4/MD2 complex; also called TLR4/MD2 receptor; source: bought: R&D Systems
T1 sequence (O00206 24-631, chain 1 of 2): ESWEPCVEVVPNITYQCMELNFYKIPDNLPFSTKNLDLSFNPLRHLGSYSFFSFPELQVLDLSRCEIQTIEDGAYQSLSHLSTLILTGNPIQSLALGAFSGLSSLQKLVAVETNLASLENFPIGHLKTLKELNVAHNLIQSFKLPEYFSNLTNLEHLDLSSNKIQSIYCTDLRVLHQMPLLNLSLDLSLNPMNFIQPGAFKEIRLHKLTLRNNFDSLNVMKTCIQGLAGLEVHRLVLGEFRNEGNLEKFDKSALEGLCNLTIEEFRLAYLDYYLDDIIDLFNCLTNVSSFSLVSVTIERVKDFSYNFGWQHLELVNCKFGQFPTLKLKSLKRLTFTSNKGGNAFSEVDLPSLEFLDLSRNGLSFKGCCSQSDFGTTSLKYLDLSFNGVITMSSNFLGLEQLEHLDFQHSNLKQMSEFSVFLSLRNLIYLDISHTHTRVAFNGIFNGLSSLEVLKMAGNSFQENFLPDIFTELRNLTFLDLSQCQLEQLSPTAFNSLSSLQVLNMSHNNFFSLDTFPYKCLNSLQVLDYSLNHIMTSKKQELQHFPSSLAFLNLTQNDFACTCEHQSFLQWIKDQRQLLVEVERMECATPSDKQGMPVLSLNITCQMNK
T1 sequence (Q9Y6Y9 19-160, chain 2 of 2): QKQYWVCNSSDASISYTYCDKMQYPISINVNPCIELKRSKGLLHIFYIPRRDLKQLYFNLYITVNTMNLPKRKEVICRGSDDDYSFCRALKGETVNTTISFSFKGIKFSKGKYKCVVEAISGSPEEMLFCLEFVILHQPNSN

[2] = biological target: T1, Recombinant TLR4/MD2 complex (R&D …); assay: SPR; Biacore X100; TLR4/MD2 complex immobilised on a CM5 chip by amine coupling (1,223.9 RU); analyte is IFI16 pre-complexed with LPS-EB (IFI16/LPS-EB complex), 31.25-1,000 nM, 30 μl/min, 25°C, HBS-EP+ buffer; association 120 s, dissociation 180 s; 1:1 binding model; settings: both partners purified

B1: human recombinant IFI16 protein (natural protein, UniProt Q16666-2 1-729, looked up)
chain: MGKKYKNIVLLKGLEVINDYHFRMVKSLLSNDLKLNLKMREEYDKIQIADLMEEKFRGDAGLGKLIKIFEDIPTLEDLAETLKKEKLKVKGPALSRKRKKEVDATSPAPSTSSTVKTEGAEATPGAQKRKKSTKEKAGPKGSKVSEEQTQPPSPAGAGMSTAMGRSPSPKTSLSAPPNSSSTENPKTVAKCQVTPRRNVLQKRPVIVKVLSTTKPFEYETPEMEKKIMFHATVATQTQFFHVKVLNTSLKEKFNGKKIIIISDYLEYDSLLEVNEESTVSEAGPNQTFEVPNKIINRAKETLKIDILHKQASGNIVYGVFMLHKKTVNQKTTIYEIQDDRGKMDVVGTGQCHNIPCEEGDKLQLFCFRLRKKNQMSKLISEMHSFIQIKKKTNPRNNDPKSMKLPQEQRQLPYPSEASTTFPESHLRTPQMPPTTPSSSFFTKKSEDTISKMNDFMRMQILKEGSHFPGPFMTSIGPAESHPHTPQMPPSTPSSSFLTTLKPRLKTEPEEVSIEDSAQSDLKEVMVLNATESFVYEPKEQKKMFHATVATENEVFRVKVFNIDLKEKFTPKKIIAIANYVCRNGFLEVYPFTLVADVNADRNMEIPKGLIRSASVTPKINQLCSQTKGSFVNGVFEVHKKNVRGEFTYYEIQDNTGKMEVVVHGRLTTINCEEGDKLKLTCFELAPKSGNTGELRSVIHSHIKVIKTRKNKKDILNPDSSMETSPDFFF
notes: IFI16, human, full-length recombinant protein; The domains were cloned in pET30a and made 'following the same procedure as that for the full-length protein'; In assay a3 and in part of a4 the protein was pre-incubated O/N at 4°C with LPS-EB, which is not a protein; also called full-length IFI16; endotoxin-free IFI16; source: recombinant, produced as previously described [24], purified, endotoxins …
[1]
  Kd: 677 nM
  koff: 0.00614 s⁻¹
  kon: 9070 M⁻¹ s⁻¹
[2]
  Kd: 4010 nM
  koff: 0.0143 s⁻¹
  kon: 3570 M⁻¹ s⁻¹
